This series has as its target NIN (520-878) (Lotus japonicus, UniProt Q9S7B1 520-878). In words: EMSA; 25 mM Tris-HCl pH 8.0, 80 mM NaCl, 35 mM KCl, 5 mM MgCl2, 10% glycerol, 1 mM DTT, 0.1% Triton; 25 nM probe, 2 ul protein (ERN1 0.75 mg/ml, NIN 1.0 mg/ml stock); 30 min at 30 C (ERN1) or 37 C (NIN); gel in 0.5x TBE. As to conditions: protein: recombinant; tags: His-tag (pET30); label: 6-FAM at 5' of strand 1; blunt.

Sequence of NIN (520-878) (Q9S7B1 entry or part of it): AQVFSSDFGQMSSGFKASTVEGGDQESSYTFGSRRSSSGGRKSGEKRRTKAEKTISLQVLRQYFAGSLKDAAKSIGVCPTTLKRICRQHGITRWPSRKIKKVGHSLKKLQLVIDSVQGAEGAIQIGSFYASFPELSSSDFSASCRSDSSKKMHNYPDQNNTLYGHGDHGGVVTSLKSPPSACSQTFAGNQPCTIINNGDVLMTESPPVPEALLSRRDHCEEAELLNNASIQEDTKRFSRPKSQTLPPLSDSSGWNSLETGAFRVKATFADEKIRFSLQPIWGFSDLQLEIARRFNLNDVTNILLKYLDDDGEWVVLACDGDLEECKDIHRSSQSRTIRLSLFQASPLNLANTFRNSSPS

B1: Nin1 probe (Epr3 promoter wt) (dsDNA)
DNA 1: ATACCCTGCCCTTACAGACAAGTATAAGAGGCACAAAA
DNA 2: TTTTGTGCCTCTTATACTTGTCTGTAAGGGCAGGGTAT
Regarding B1, the binding result is reported as “binds”.

(Values after paper PMC5331223, “Differential regulation of the Epr3 receptor coordinates membrane-restricted rhizobial colonization of root nodule primordia”.)
